{
  "source": "paper PMC8608346",
  "origin": "cited, not measured here",
  "target": "FPR1 (Homo sapiens) (UniProt P21462)",
  "sequence (P21462 whole entry)": "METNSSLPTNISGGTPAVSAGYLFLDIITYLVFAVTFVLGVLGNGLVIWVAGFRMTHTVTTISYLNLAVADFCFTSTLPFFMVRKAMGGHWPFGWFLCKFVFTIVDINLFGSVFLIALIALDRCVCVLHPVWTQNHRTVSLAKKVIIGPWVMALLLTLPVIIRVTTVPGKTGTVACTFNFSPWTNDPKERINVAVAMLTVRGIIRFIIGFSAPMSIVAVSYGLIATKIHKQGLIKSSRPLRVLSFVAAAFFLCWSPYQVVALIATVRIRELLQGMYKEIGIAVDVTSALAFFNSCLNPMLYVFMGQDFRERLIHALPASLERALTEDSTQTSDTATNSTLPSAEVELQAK",
  "data": [
    {"substance": "FAM19A4 (from UniProt Q96LR4)", "values": [
      {"measurement": "Kd", "value": 0.447, "unit": "nM"}
    ]}
  ]
}
